Tested on: Escherichia coli TOP10
Experiment: shrunken log2 fold change of peptide-encoding DNA abundance (4.5 h post-induction vs induction); higher = less antimicrobial activity (less host growth inhibition)
Details: time post-induction: 4.5 h; library: site-saturation at positions 5, 18, 19, 20
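Further: peptides expressed intracellularly from a pBAD plasmid library in pooled LB shake-flask culture, induced with 0.3% L-arabinose, DNA abundance read by NGS, three biological replicates, DESeq2 with apeglm shrinkage.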

Row | Sequence | shrunken log2 fold change
1 | RRIRIRPPRLPRPRPRPSNTPRP | -0.515
2 | RRIRIRPPRLPRPRPRPSPSPRP | 0.0467
3 | RRIRIRPPRLPRPRPRPSQSPRP | -0.0979
4 | RRIRIRPPRLPRPRPRPSRVPRP | -0.0608
5 | RRIRIRPPRLPRPRPRPSSLPRP | -0.713
6 | RRIRIRPPRLPRPRPRPSTAPRP | -0.263
7 | RRIRIRPPRLPRPRPRPSTIPRP | -0.361
8 | RRIRIRPPRLPRPRPRPSVKPRP | -0.037
9 | RRIRIRPPRLPRPRPRPSVPPRP | -0.835
10 | RRIRIRPPRLPRPRPRPSWMPRP | -0.562
11 | RRIRIRPPRLPRPRPRPSYSPRP | -0.694
12 | RRIRIRPPRLPRPRPRPTANPRP | -0.149
13 | RRIRIRPPRLPRPRPRPTASPRP | 0.132
14 | RRIRIRPPRLPRPRPRPTDNPRP | -0.964
15 | RRIRIRPPRLPRPRPRPTDQPRP | -0.51
16 | RRIRIRPPRLPRPRPRPTDRPRP | -0.192
17 | RRIRIRPPRLPRPRPRPTESPRP | -0.433
18 | RRIRIRPPRLPRPRPRPTHHPRP | 0.155
19 | RRIRIRPPRLPRPRPRPTISPRP | -0.385
20 | RRIRIRPPRLPRPRPRPTKHPRP | -0.528
21 | RRIRIRPPRLPRPRPRPTMFPRP | -0.763
22 | RRIRIRPPRLPRPRPRPTMHPRP | -0.443
23 | RRIRIRPPRLPRPRPRPTPTPRP | 0.387
24 | RRIRIRPPRLPRPRPRPTQEPRP | 0.0113
25 | RRIRIRPPRLPRPRPRPTRKPRP | -0.101

Row | Sequence | shrunken log2 fold change
26 | RRIRIRPPRLPRPRPRPTSIPRP | -0.182
27 | RRIRIRPPRLPRPRPRPTTEPRP | 0.086
28 | RRIRIRPPRLPRPRPRPTTHPRP | -0.441
29 | RRIRIRPPRLPRPRPRPTYHPRP | -0.949
30 | RRIRIRPPRLPRPRPRPTYKPRP | -1.09
31 | RRIRIRPPRLPRPRPRPVAGPRP | -0.0858
32 | RRIRIRPPRLPRPRPRPVASPRP | -0.14
33 | RRIRIRPPRLPRPRPRPVCRPRP | 1.56
34 | RRIRIRPPRLPRPRPRPVDAPRP | -0.0281
35 | RRIRIRPPRLPRPRPRPVDYPRP | -0.0672
36 | RRIRIRPPRLPRPRPRPVEIPRP | -0.0212
37 | RRIRIRPPRLPRPRPRPVFSPRP | -0.626
38 | RRIRIRPPRLPRPRPRPVHRPRP | -0.194
39 | RRIRIRPPRLPRPRPRPVKGPRP | -0.0688
40 | RRIRIRPPRLPRPRPRPVKLPRP | -0.0316
41 | RRIRIRPPRLPRPRPRPVLMPRP | -0.229
42 | RRIRIRPPRLPRPRPRPVMAPRP | -0.526
43 | RRIRIRPPRLPRPRPRPVPSPRP | -0.217
44 | RRIRIRPPRLPRPRPRPVPTPRP | 0.0576
45 | RRIRIRPPRLPRPRPRPVQNPRP | -0.425
46 | RRIRIRPPRLPRPRPRPVSWPRP | -0.171
47 | RRIRIRPPRLPRPRPRPVTPPRP | -0.0315
48 | RRIRIRPPRLPRPRPRPVYCPRP | -0.127
49 | RRIRIRPPRLPRPRPRPVYKPRP | -0.834
50 | RRIRIRPPRLPRPRPRPVYPPRP | -0.233

Row | Sequence | shrunken log2 fold change
51 | RRIRIRPPRLPRPRPRPWAPPRP | -0.19
52 | RRIRIRPPRLPRPRPRPWDTPRP | -0.231
53 | RRIRIRPPRLPRPRPRPWEMPRP | 0.177
54 | RRIRIRPPRLPRPRPRPWFGPRP | -0.348
55 | RRIRIRPPRLPRPRPRPWFQPRP | -0.0137
56 | RRIRIRPPRLPRPRPRPWFSPRP | -0.201
57 | RRIRIRPPRLPRPRPRPWGLPRP | -0.192
58 | RRIRIRPPRLPRPRPRPWGMPRP | 0.0727
59 | RRIRIRPPRLPRPRPRPWHHPRP | -0.126
60 | RRIRIRPPRLPRPRPRPWIRPRP | -0.156
61 | RRIRIRPPRLPRPRPRPWIVPRP | -0.157
62 | RRIRIRPPRLPRPRPRPWKMPRP | -1.13
63 | RRIRIRPPRLPRPRPRPWLCPRP | -0.121
64 | RRIRIRPPRLPRPRPRPWLDPRP | -0.353
65 | RRIRIRPPRLPRPRPRPWLKPRP | 4.66
66 | RRIRIRPPRLPRPRPRPWLMPRP | -0.202
67 | RRIRIRPPRLPRPRPRPWLNPRP | -0.562
68 | RRIRIRPPRLPRPRPRPWMEPRP | -0.172
69 | RRIRIRPPRLPRPRPRPWMWPRP | 0.0832
70 | RRIRIRPPRLPRPRPRPWNCPRP | -0.000121
71 | RRIRIRPPRLPRPRPRPWNMPRP | 0.0777
72 | RRIRIRPPRLPRPRPRPWPMPRP | 0.0828
73 | RRIRIRPPRLPRPRPRPWPWPRP | 0.0338
74 | RRIRIRPPRLPRPRPRPWPYPRP | -0.163
75 | RRIRIRPPRLPRPRPRPWQMPRP | 0.0562

Row | Sequence | shrunken log2 fold change
76 | RRIRIRPPRLPRPRPRPWRKPRP | -0.143
77 | RRIRIRPPRLPRPRPRPWRNPRP | -0.0466
78 | RRIRIRPPRLPRPRPRPWSCPRP | 0.0678
79 | RRIRIRPPRLPRPRPRPWSPPRP | -0.269
80 | RRIRIRPPRLPRPRPRPWTIPRP | -0.0831
81 | RRIRIRPPRLPRPRPRPWYMPRP | -0.775
82 | RRIRIRPPRLPRPRPRPWYWPRP | -1.38
83 | RRIRIRPPRLPRPRPRPYATPRP | -0.334
84 | RRIRIRPPRLPRPRPRPYAYPRP | -0.0284
85 | RRIRIRPPRLPRPRPRPYFMPRP | -1.21
86 | RRIRIRPPRLPRPRPRPYGGPRP | 0.00177
87 | RRIRIRPPRLPRPRPRPYGIPRP | -0.329
88 | RRIRIRPPRLPRPRPRPYGNPRP | -1.18
89 | RRIRIRPPRLPRPRPRPYHYPRP | -0.415
90 | RRIRIRPPRLPRPRPRPYIMPRP | -1.15
91 | RRIRIRPPRLPRPRPRPYKAPRP | -0.361
92 | RRIRIRPPRLPRPRPRPYKWPRP | -0.424
93 | RRIRIRPPRLPRPRPRPYKYPRP | -0.89
94 | RRIRIRPPRLPRPRPRPYLEPRP | -0.849
95 | RRIRIRPPRLPRPRPRPYLKPRP | 0.000419
96 | RRIRIRPPRLPRPRPRPYLQPRP | -0.00195
97 | RRIRIRPPRLPRPRPRPYLWPRP | -0.156
98 | RRIRIRPPRLPRPRPRPYMQPRP | -0.695
99 | RRIRIRPPRLPRPRPRPYPHPRP | -1.02
100 | RRIRIRPPRLPRPRPRPYQPPRP | 0.0299

Row | Sequence | shrunken log2 fold change
101 | RRIRIRPPRLPRPRPRPYQRPRP | -0.12
102 | RRIRIRPPRLPRPRPRPYRSPRP | -0.186
103 | RRIRIRPPRLPRPRPRPYRYPRP | -0.127
104 | RRIRIRPPRLPRPRPRPYSEPRP | -0.535
105 | RRIRIRPPRLPRPRPRPYSFPRP | -0.307
106 | RRIRIRPPRLPRPRPRPYTMPRP | -0.758
107 | RRIRIRPPRLPRPRPRPYVAPRP | -0.674
108 | RRIRIRPPRLPRPRPRPYVFPRP | -0.0874
109 | RRIRIRPPRLPRPRPRPYVLPRP | -0.588
110 | RRIRIRPPRLPRPRPRPYYRPRP | -0.105
111 | RRIRKRPPRLPRPRPRPAAMPRP | 0.707
112 | RRIRKRPPRLPRPRPRPADEPRP | 0.19
113 | RRIRKRPPRLPRPRPRPADLPRP | 0.056
114 | RRIRKRPPRLPRPRPRPADSPRP | 0.00593
115 | RRIRKRPPRLPRPRPRPAEEPRP | 0.906
116 | RRIRKRPPRLPRPRPRPAFLPRP | 0.245
117 | RRIRKRPPRLPRPRPRPAGHPRP | 0.0606
118 | RRIRKRPPRLPRPRPRPAGNPRP | 0.304
119 | RRIRKRPPRLPRPRPRPAHDPRP | 0.536
120 | RRIRKRPPRLPRPRPRPAIMPRP | 0.418
121 | RRIRKRPPRLPRPRPRPAINPRP | 0.126
122 | RRIRKRPPRLPRPRPRPALEPRP | -0.108
123 | RRIRKRPPRLPRPRPRPALMPRP | 0.32
124 | RRIRKRPPRLPRPRPRPANLPRP | 0.299
125 | RRIRKRPPRLPRPRPRPANSPRP | -0.0423

Row | Sequence | shrunken log2 fold change
126 | RRIRKRPPRLPRPRPRPAPMPRP | 0.769
127 | RRIRKRPPRLPRPRPRPASAPRP | 0.59
128 | RRIRKRPPRLPRPRPRPASCPRP | 0.431
129 | RRIRKRPPRLPRPRPRPATSPRP | 0.288
130 | RRIRKRPPRLPRPRPRPATTPRP | 0.407
131 | RRIRKRPPRLPRPRPRPAVKPRP | -0.104
132 | RRIRKRPPRLPRPRPRPAVPPRP | 0.275
133 | RRIRKRPPRLPRPRPRPAVWPRP | 0.563
134 | RRIRKRPPRLPRPRPRPAWRPRP | 1.18
135 | RRIRKRPPRLPRPRPRPAYLPRP | 0.105
136 | RRIRKRPPRLPRPRPRPCAEPRP | 0.951
137 | RRIRKRPPRLPRPRPRPCAGPRP | 0.257
138 | RRIRKRPPRLPRPRPRPCCFPRP | 0.112
139 | RRIRKRPPRLPRPRPRPCCKPRP | 0.099
140 | RRIRKRPPRLPRPRPRPCCPPRP | -0.044
141 | RRIRKRPPRLPRPRPRPCEDPRP | 0.563
142 | RRIRKRPPRLPRPRPRPCFKPRP | 0.0163
143 | RRIRKRPPRLPRPRPRPCFQPRP | -0.112
144 | RRIRKRPPRLPRPRPRPCIAPRP | -0.0581
145 | RRIRKRPPRLPRPRPRPCISPRP | 0.0183
146 | RRIRKRPPRLPRPRPRPCIWPRP | 0.0573
147 | RRIRKRPPRLPRPRPRPCLVPRP | 0.123
148 | RRIRKRPPRLPRPRPRPCMCPRP | -0.0956
149 | RRIRKRPPRLPRPRPRPCMVPRP | 0.309
150 | RRIRKRPPRLPRPRPRPCNFPRP | -0.132
